# US20040038876A1 (published 2004)
# T1: Shh receptor molecules on C3H10T1/2 cells (UniProt Q61115 1-1434)
# T1 sequence (looked up): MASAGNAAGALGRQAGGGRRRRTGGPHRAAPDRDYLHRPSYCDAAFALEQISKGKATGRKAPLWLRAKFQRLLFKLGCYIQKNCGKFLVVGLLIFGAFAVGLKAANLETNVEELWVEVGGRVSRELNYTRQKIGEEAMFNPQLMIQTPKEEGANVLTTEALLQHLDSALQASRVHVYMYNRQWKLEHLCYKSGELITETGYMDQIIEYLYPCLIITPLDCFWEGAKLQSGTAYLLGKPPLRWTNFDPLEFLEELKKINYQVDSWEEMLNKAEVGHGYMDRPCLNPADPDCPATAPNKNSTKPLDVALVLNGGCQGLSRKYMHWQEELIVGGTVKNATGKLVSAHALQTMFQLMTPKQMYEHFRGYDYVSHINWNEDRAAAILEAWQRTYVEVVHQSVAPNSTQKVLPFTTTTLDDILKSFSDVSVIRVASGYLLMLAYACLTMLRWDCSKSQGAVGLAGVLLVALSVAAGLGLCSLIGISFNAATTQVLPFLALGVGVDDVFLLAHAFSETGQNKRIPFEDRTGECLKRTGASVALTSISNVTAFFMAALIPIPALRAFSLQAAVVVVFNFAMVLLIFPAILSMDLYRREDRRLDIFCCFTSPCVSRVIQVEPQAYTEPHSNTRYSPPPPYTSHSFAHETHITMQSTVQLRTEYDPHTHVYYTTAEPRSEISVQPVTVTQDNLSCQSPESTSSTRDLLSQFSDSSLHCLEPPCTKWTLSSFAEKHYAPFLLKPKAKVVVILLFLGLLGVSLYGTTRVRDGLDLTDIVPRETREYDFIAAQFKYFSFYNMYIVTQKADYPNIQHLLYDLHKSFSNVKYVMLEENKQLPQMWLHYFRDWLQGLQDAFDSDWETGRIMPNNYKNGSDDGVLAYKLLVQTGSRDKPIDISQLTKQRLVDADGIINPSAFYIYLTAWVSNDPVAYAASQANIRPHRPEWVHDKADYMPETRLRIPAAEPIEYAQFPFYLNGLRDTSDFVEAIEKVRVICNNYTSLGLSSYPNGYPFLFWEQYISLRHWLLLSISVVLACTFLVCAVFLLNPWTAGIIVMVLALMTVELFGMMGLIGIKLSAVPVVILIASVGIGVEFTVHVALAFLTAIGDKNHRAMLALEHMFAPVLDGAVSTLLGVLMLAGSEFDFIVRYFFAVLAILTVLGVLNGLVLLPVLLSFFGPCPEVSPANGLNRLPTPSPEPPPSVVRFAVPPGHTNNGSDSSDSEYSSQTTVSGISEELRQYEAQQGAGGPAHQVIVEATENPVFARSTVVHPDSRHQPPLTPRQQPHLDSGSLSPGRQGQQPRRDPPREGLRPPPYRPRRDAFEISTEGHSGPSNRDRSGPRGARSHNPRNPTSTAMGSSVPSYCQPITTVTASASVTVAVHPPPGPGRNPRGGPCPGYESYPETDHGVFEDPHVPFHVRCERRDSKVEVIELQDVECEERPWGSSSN
# Target: T1, Shh receptor molecules on C3H10T1/2 …
# Assay: cell-based or functional assay
row,Binder,IC50 in C3H10T1/2 assay [µg/mL]
1,"mutant 44 (Shh C1II/A169C + E113C), 5 K PEG (ligand, 5 K PEG maleimide on thiol of Cys113, Cys169) not shown",0.6
2,"mutant 45 (Shh C1II/A169C + G146C), 5 K PEG (ligand, 5 K PEG maleimide on thiol of Cys146, Cys169) not shown",0.5

# The remaining lines, values ahead:
row,IC50 in C3H10T1/2 assay [µg/mL],Binder
1,1,"mutant 44 (Shh C1II/A169C + E113C), unmodified (ligand) not shown"
2,0.3,"mutant 45 (Shh C1II/A169C + G146C), unmodified (ligand) not shown"
